B1: V5-Par6A (wild type) [not stated] / HA-Cdc42(G12V) [not stated] (parent complex)
chain 1: MARPQRTPARSPDSIVEVKSKFDAEFRRFALPRASVSGFQEFSRLLRAVHQIPGLDVLLGYTDAHGDLLPLTNDDSLHRALASGPPPLRLLVQKRAEADSSGLAFASNSLQRRKKGLLLRPVAPLRTRPPLLISLPQDFRQVSSVIDVDLLPETHRRVRLHKHGSDRPLGFYIRDGMSVRVAPQGLERVPGIFISRLVRGGLAESTGLLAVSDEILEVNGIEVAGKTLDQVTDMMVANSHNLIVTVKPANQRNNVVRGASGRLTGPPSAGPGPAEPDSDDDSSDLVIENRQPPSSNGLSQGPPCWDLHPGCRHPGTRSSLPSLDDQEQASSGWGSRIRGDGSGFSL
chain 2: not shown

Variants of: B1
Test: co-immunoprecipitation (IP: GFP), quantified blot; HEK293T cells; HA-Cdc42(G12V) recovered in the GFP (YFP-Tuba) IP when co-expressed with the Par6A variant; n = 4; parent: 1; read off a plot

Row | ratio to parent | Variant
1 | ~0.21 | chain 1 I133A, chain 1 S134A
